Data as given in patent publication US20210079109A1 (Regeneron, published 2021).

Assays:
human CD63 [1] = biological target: T1, human CD63 (human, UniProt P08962 2-238); assay: ECL, LNCAP cells; LNCAP cells (lower CD63 copy number), ratio at 3.7 nM Ab: non-binder
T1 construct: stably transfected in NIH3T3/hCD63; The cell line is named under assay; also called hCD63
T1 sequence: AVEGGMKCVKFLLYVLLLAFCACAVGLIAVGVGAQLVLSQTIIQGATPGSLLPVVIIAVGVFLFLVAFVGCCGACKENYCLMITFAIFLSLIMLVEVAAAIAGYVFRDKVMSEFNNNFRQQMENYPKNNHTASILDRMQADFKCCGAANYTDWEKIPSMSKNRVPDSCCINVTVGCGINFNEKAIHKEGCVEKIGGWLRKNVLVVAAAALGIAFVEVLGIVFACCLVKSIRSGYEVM
Description: (§1) LNCAP cells were determined to have a lower human CD63 copy number than U87MG cells. Non-transfected NIH3T3 cells, which have no detectable expression of human CD63 by fluorescence activated cell sorting (FACS), were included as a negative control.
(§2) Briefly, cell lines were rinsed once in PBS buffer without Ca²⁺/Mg²⁺ and incubated for 10 minutes at 37° C. with Enzyme Free Cell Dissociation Solution (Millipore, Cat #S-004-C) to detach the cells. Cells were then washed once with PBS with Ca²⁺/Mg²⁺ and counted with a Cellometer™ Auto T4 cell counter (Nexcelom Bioscience, LLC). Approximately 2.0×10⁴ NIH3T3/hCD63, LNCAP, U87MG or NIH3T3 cells were seeded separately onto 96-well carbon electrode plates […]) and were then incubated for one hour at 37° C. Nonspecific binding sites were blocked with 2% BSA (w/v) in PBS with Ca²⁺/Mg²⁺ for one hour at room temperature (RT). […] Plates were washed and then incubated with Read Buffer (MSD, Cat #R92TD-2) according to the manufacturer's instructions. Luminescent signals were measured using a SECTOR Imager (MSD).

human CD63 [2] = biological target: T1, human CD63; assay: ECL, NIH3T3/hCD63 cells; NIH3T3/hCD63 cells (engineered, CD63 overexpressed): binds
Description: as §1, §2

[3] = biological target: T2, recombinant human CD63 extracellular loop 2 expressed with a C-terminal Myc-Myc-hexahistidine (human); assay: SPR Biacore, mAb captured, 37C
T2 construct: also called hCD63 EC loop 2-MMH; human CD63 EC loop 2-MMH
Method in brief: (§3)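 Anti-CD63 mAbs captured on anti-mouse Fc or anti-human Fab surfaces; CD63 EC2 reagents flowed in HBS-ET, pH 7.4, at 25° C or 37° C. ka and kd from 1:1 binding model with mass transport limitation; KD and t½ calculated from kinetic rates.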

[4] = biological target: T3, recombinant human CD63 extracellular loop 2 expressed with a C-terminal human Fc tag (human); assay: SPR Biacore, mAb captured, 37C
T3 construct: also called hCD63 EC loop 2-hFc; human CD63 EC loop 2-Fc
Method in brief: as §3

human CD63 [5] = biological target: T1, human CD63; assay: ECL, U87MG cells; U87MG cells (endogenous CD63), ratio at 3.7 nM Ab: binds, EC50 inconclusive
Description: as §1, §2

human CD63 [6] = biological target: T1, human CD63; assay: ECL, NIH3T3/hCD63 cells; NIH3T3/hCD63 cells, ratio at 3.7 nM Ab: binds
Description: as §1, §2

[7] = biological target: T2, recombinant human CD63 extracellular …; assay: SPR Biacore, mAb captured, 25C
Method in brief: as §3

[8] = biological target: T3, recombinant human CD63 extracellular …; assay: SPR Biacore, mAb captured, 25C
Method in brief: as §3

T2 sequence (chain, as listed by the source limits assumed): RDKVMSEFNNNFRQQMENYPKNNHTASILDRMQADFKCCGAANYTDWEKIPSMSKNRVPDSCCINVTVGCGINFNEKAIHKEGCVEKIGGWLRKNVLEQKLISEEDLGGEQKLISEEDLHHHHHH
T3 sequence (chain, as listed by the source limits assumed): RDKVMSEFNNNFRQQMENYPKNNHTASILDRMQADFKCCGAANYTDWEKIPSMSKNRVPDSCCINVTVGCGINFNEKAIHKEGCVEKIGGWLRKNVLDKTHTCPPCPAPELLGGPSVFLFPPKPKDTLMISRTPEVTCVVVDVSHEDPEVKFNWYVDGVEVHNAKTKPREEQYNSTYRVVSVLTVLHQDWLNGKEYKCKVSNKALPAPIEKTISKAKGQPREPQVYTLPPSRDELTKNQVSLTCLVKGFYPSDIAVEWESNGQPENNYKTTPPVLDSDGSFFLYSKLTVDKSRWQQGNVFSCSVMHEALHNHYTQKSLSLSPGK

binding ratio at 3.7 nM vs NIH3T3 (human CD63 [1]): 1 fold | EC50 (human CD63 [2]): 7.4 nM | 100 nM Ag Bound (RU) [3]: 3 RU | Kd [3]: 174 nM | koff [3]: 0.0917 s⁻¹ | kon [3]: 528000 M⁻¹ s⁻¹ | t1/2 [3]: 0.1 min | 100 nM Ag Bound (RU) [4]: 111 RU | Kd [4]: 6.5 nM | koff [4]: 0.00207 s⁻¹ | kon [4]: 318000 M⁻¹ s⁻¹ | t1/2 [4]: 6 min | binding ratio at 3.7 nM vs NIH3T3 (human CD63 [5]): 5 fold | binding ratio at 3.7 nM vs NIH3T3 (human CD63 [6]): 14 fold | 100 nM Ag Bound (RU) [7]: 11 RU | Kd [7]: 11.7 µM | koff [7]: 0.0309 s⁻¹ | kon [7]: 2640 M⁻¹ s⁻¹ | t1/2 [7]: 0.4 min | 100 nM Ag Bound (RU) [8]: 136 RU | Kd [8]: 2.58 nM | koff [8]: 0.000453 s⁻¹ | kon [8]: 175000 M⁻¹ s⁻¹ | t1/2 [8]: 26 min
B1: H4H11998P2 (antibody, V domains shown)
VH: QVQLVESGGGLVKPGGSLRLSCAASGFSFSDYYITWIRQAPGKGLEWVSYINTGGYTMYYADSVKGRFTISRDNAKNSLYLQMNNLRAEDTAVYYCTRDRRYNFGLDYWGQGTLVTVSS
VL: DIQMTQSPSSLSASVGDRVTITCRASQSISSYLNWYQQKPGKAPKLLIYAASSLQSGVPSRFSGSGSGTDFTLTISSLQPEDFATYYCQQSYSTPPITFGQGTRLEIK
